Source: PMC5367257 (RNA Biology, 2017)
Blank lines part the entries; values can stand above or below the binder they belong to.

Experiments:
[1] = biological target: His-PABP-Flag (wild-type full-length human poly(A)-binding protein) (human, UniProt P11940 1-636); experiment: pull-down
PABP 2-3 mt = PABP 2-3 mt (human, UniProt P11940 1-175+=[…]+190-636, internal_change); experiment: EMSA
WT PABP = WT PABP (human, UniProt P11940 1-636); experiment: EMSA

fold increase of binding with eIF4E against without eIF4E [1]: ~3 fold
B1: His-eIF4G-N (truncated human eIF4GI, amino acids 42–653, with the PABP- and eIF4E-binding sites) (domain or fragment)
chain: NTPSQPRQHFYPSRAQPPSSAASRVQSAAPARPGPAAHVYPAGSQVMMIPSQISYPASQGAYYIPGQGRSTYVVPTQQYPVQPGAPGFYPGASPTEFGTYAGAYYPAQGVQQFPTGVAPTPVLMNQPPQIAPKRERKTIRIRDPNQGGKDITEEIMSGARTASTPTPPQTGGGLEPQANGETPQVAVIVRPDDRSQGAIIADRPGLPGPEHSPSESQPSSPSPTPSPSPVLEPGSEPNLAVLSIPGDTMTTIQMSVEESTPISRETGEPYRLSPEPTPLAEPILEVEVTLSKPVPESEFSSSPLQAPTPLASHTVEIHEPNGMVPSEDLEPEVESSPELAPPPACPSESPVPIAPTAQPEELLNGAPSPPAVDLSPVSEPEEQAKEVTASMAPPTIPSATPATAPSATSPAQEEEMEEEEEEEEGEAGEAGEAESEKGGEELLPPESTPIPANLSQNLEAAAATQVAVSVPKRRRKIKELNKKEAVGDLLDAFKEANPAVPEVENQPPAGSNPGPESEGSGVPPRPEEADETWDSKEDKIHNAENIQPGEQKYEYKSDQWKPLNLEEKKRYDREFLLGFQFIFASMQKPEGLPHISDVVLDKANKTPLRPLD

B2: poly(A)25 RNA (ssRNA)
RNA: AAAAAAAAAAAAAAAAAAAAAAAAA
Kd (PABP 2-3 mt): ~6.9 nM
Kd (WT PABP): ~5.9 nM
